Test results taken from patent US20130330346A1 (Novartis, published 2013).
Read-outs that look alike come from different tables or passages of the source. Ends that are not written are not given here.

T1: Cynomolgus CXCR2 (cynomolgus, UniProt Q28519 3-353 (rhesus entry))
T1 chain: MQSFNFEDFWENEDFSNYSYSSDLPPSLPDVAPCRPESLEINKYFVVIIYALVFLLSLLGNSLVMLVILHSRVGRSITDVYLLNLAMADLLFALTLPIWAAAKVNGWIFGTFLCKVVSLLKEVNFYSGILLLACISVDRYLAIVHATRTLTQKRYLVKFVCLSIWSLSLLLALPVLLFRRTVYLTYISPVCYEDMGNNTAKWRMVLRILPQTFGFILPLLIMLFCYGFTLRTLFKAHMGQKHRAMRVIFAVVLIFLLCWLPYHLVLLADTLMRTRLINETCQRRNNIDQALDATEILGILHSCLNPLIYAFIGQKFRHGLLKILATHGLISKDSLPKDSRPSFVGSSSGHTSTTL

T2: Human CXCR2 (human, UniProt P25025 1-360)
T2 sequence: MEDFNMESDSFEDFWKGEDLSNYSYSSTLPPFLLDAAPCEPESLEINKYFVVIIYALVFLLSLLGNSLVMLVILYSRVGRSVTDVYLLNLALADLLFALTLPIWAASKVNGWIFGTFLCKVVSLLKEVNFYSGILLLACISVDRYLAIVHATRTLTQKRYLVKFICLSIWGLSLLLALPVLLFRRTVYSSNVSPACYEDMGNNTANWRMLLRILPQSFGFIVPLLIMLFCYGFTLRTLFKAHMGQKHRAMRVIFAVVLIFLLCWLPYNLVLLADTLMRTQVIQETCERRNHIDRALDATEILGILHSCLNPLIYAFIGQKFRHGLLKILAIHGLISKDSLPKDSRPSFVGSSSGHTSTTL

T3: Human 1to19 peptide (human)
T3 construct: First 19 N-terminal amino acids of human CXCR2, captured on neutravidin; also called human CXCR2 1 to19 peptide; 1-19 Nter peptide
T3 peptide: MEDFNMESDSFEDFWKGED-biotin


What was measured:
Cynomolgus CXCR2 [1] = target: T1, Cynomolgus CXCR2; assay: cell-based or functional assay
Human CXCR2 [2] = target: T2, Human CXCR2; assay: cell-based or functional assay
Human 1to19 peptide = target: T3, Human 1to19 peptide; assay: ELISA, periplasmic extract on biotinylated peptide
Description: In another setup, periplasmic extracts were analyzed for binding to human 1 to 19 peptide by ELISA. MaxiSorb plates (Nunc, 430341) were coated for two hours with neutravidin followed by one hour blocking (PBS, 1% casein). Then 100 nM biotinylated human 1 to 19 peptide was added to these plates for one hour (PBS, 0.1% casein, 0.05% tween20) followed by one hour incubation with 10-fold dilutions of periplasmic extracts. Unbound periplasmic extracts were washed away (PBS supplemented with 0.05% tween20) and bound Nanobodies were detected using mouse anti-myc (Roche, 11667149001) followed by rabbit anti-mouse-HRP conjugate (Dakocytomation, P0260). Table 8 summarizes the ratios of the binding signals of anti-CXCR2Nanobodies over an irrelevant control Nanobody.

Cynomolgus CXCR2 [3] = target: T1, Cynomolgus CXCR2; assay: FACS competition vs 3 nM FMAT-Blue Gro-α
Description: (§1) Purified monovalent anti-CXCR2Nanobodies were titrated against 3 nM FMAT-Blue-labeled Gro-α in the FACS ligand competition assay on human and cynomolgus CXCR2 (Table 10). On human CXCR2, blocking potencies range between double digit nM and sub-nM whereas on cynomolgus CXCR2, they range between single and double digit nM.

Human CXCR2 [4] = target: T2, Human CXCR2; assay: FACS competition vs 3 nM FMAT-Blue Gro-α
Description: as §1

Human CXCR2 [5] = target: T2, Human CXCR2; assay: cell-based or functional assay; remark: listed apart in the source
Human CXCR2 [6] = target: T2, Human CXCR2; assay: FACS, periplasmic extract vs FMAT Blue Gro-α
How it was run: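 Cells (2×10⁵) preincubated 30 min at 4 °C with ½-diluted periplasmic extracts in PBS/10% FBS. An equal volume of 6 nM FMAT Blue-labelled human Gro-α was then added for another 30 min at 4 °C in the dark. After washing, dead cells were excluded with propidium iodide and binding read by flow cytometry.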

Cynomolgus CXCR2 [7] = target: T1, Cynomolgus CXCR2; assay: FACS hGro-α competition
Human CXCR2 [8] = target: T2, Human CXCR2; assay: FACS hGro-α competition
Cynomolgus CXCR2 [9] = target: T1, Cynomolgus CXCR2; assay: cell-based or functional assay
Human CXCR2 [10] = target: T2, Human CXCR2; assay: cell-based or functional assay; remark: listed apart in the source
Cynomolgus CXCR2 [11] = target: T1, Cynomolgus CXCR2; assay: cell-based or functional assay
Human CXCR2 [12] = target: T2, Human CXCR2; assay: cell-based or functional assay; remark: listed apart in the source
Human CXCR2 [13] = target: T2, Human CXCR2; assay: immunoluminescence, HEK-293T with wild type receptor, 1.0 ug/ml, anti-myc detection
Cynomolgus CXCR2 [14] = target: T1, Cynomolgus CXCR2; assay: FACS hGro-α competition
Cynomolgus CXCR2 [15] = target: T1, Cynomolgus CXCR2; assay: cell-based or functional assay
Human CXCR2 [16] = target: T2, Human CXCR2; assay: cell-based or functional assay; remark: listed apart in the source
Cynomolgus CXCR2 [17] = target: T1, Cynomolgus CXCR2; assay: cell-based or functional assay
Human CXCR2 [18] = target: T2, Human CXCR2; assay: cell-based or functional assay; remark: listed apart in the source
Cynomolgus CXCR2 [19] = target: T1, Cynomolgus CXCR2; assay: FACS hGro-α competition
Human CXCR2 [20] = target: T2, Human CXCR2; assay: FACS hGro-α competition; remark: listed apart in the source
Cynomolgus CXCR2 [21] = target: T1, Cynomolgus CXCR2; assay: cell-based or functional assay
Human CXCR2 [22] = target: T2, Human CXCR2; assay: cell-based or functional assay; remark: listed apart in the source
Cynomolgus CXCR2 [23] = target: T1, Cynomolgus CXCR2; assay: FACS hGro-α competition
Human CXCR2 [24] = target: T2, Human CXCR2; assay: FACS hGro-α competition; remark: listed apart in the source

| ratio of binding signal relative to blank control (Human 1to19 peptide) [ratio] | % inhibition of max (Cynomolgus CXCR2 [3]) [%] | IC50 (Cynomolgus CXCR2 [3]) [nM] | % inhibition of max (Human CXCR2 [4]) [%] | IC50 (Human CXCR2 [4]) [nM] | FACS Gro-α competition (% inhibition) (Human CXCR2 [6]) [%] | FLIPR % inhibition max (Cynomolgus CXCR2 [9]) [%] | FLIPR IC50 (GRO-α induced calcium release) (Cynomolgus CXCR2 [9]) [nM] | FLIPR % inhibition max (Human CXCR2 [10]) [%] | FLIPR IC50 (GRO-α induced calcium release) (Human CXCR2 [10]) [nM] | [35S]GTPγS % inhibition max (GRO-α) (Human CXCR2 [10]) [%] | [35S]GTPγS IC50 (GRO-α) (Human CXCR2 [10]) [nM] | Cynomologus WBSC IC50 (rhGROα) (Cynomolgus CXCR2 [11]) [nM] | Human WBSC IC50 (rhGROα) (Human CXCR2 [12]) [nM] | Binder | also measured |
| --- | --- | --- | --- | --- | --- | --- | --- | --- | --- | --- | --- | --- | --- | --- | --- |
| 39.5 | 82.6 | 4.41 | 61.1 | 0.309 | 46.7 | 100 | 753 | 100 | 21.9 | 66 | 12.5 | > 100 | 4.9 | 127D1 (VHH, Tested as periplasmic extract (pAX50) and as purified His6-tagged protein (pAX100); also called 127D01; not shown: C-terminal c-myc tag and His6 tag coded by the vector) VHH: EVQLVESGGGLVQAGESLRLSCAASGSTFDFKVMGWYRQPPGKQREGVAAIRLSGNMHYAESVKGRFTISKANAKNTVYLQMNSLRPEDTAVYYCKVNIRGQDYWGQGTQVTVSS | FLIPR hGro-α IC50 (Cynomolgus CXCR2 [1]): 1100 nM; FLIPR hGro-α IC50 (Human CXCR2 [2]): 15 nM; IC50 (M) at 5 nM GROα (inhibition of GRO-α, FIG. 2) (Human CXCR2 [5]): 1.64e-09 M; IC50 (M) at 15 nM GROα (inhibition of GRO-α, FIG. 2) (Human CXCR2 [5]): 2.04e-09 M; IC50 (M) at 45 nM GROα (inhibition of GRO-α, FIG. 2) (Human CXCR2 [5]): 3.26e-09 M; IC50 (M) at 150 nM GROα (inhibition of GRO-α, FIG. 2) (Human CXCR2 [5]): 4.6e-09 M; IC50 (Cynomolgus CXCR2 [7]): 6.1 nM; IC50 (Human CXCR2 [8]): 0.55 nM; Human Chemotaxis IC50 (GROα) (Human CXCR2 [12]): 14 nM |
| – | – | – | – | – | – | – | – | – | – | – | – | – | – | CXCR20079 (VHH, also called RD-HBC792; RDHBC 792) VHH: EVQLLESGGGLVQPGGSLRLSCAASGSTFDFKVMGWYRQAPGKQREGVAAIRLSGNRHYAESVKGRFTISRANSKNTVYLQMNSLRPEDTAVYYCKVNIRGQDYWGQGTLVTVSS | FLIPR hGro-α IC50 (Cynomolgus CXCR2 [1]): 450 nM; FLIPR hGro-α IC50 (Human CXCR2 [2]): 10 nM; Signal:Background (Human CXCR2 [13]): 13 ratio; IC50 (Cynomolgus CXCR2 [7]): 2.8 nM; IC50 (Human CXCR2 [8]): 0.8 nM |
| 75.5 | 63 | 39.5 | 35 | 0.857 | – | 100 | 4080 | 100 | 153 | 71.8 | 15.4 | > 100 | 19.7 | 54B12 (VHH, Tested as periplasmic extract (pAX50) and as purified His6-tagged protein (pAX100); also called 054B12; not shown: C-terminal c-myc tag and His6 tag coded by the vector) VHH: EVQLVESGGGLVQAGGSLTLSCAVSGSTFRINTMGWYRRAPGKQRELVAARDRGGYINYVDSVKGRFTVSRDNAKPTMYLQMNSLKPEDTAVYYCHAGTQDRTGRNFDRWGQGTQVTVSS | IC50 (Cynomolgus CXCR2 [14]): 33 nM; FLIPR hGro-α IC50 (Cynomolgus CXCR2 [15]): 1100 nM; FLIPR hGro-α IC50 (Human CXCR2 [16]): 150 nM |
| – | – | – | – | – | – | – | – | – | – | – | – | – | – | CXCR20104 (VHH, also called CXCR2104) VHH: EVQLLESGGGLVQPGGSLRLSCAVSGSTFRINTMGWYRQAPGKQRELVAARDRGGYINYVDSVKGRFTISRDNSKPTMYLQMNSLRPEDTAVYYCHAGTQDRTGRNFDRWGQGTLVTVSS | IC50 (Cynomolgus CXCR2 [14]): 13 nM; FLIPR hGro-α IC50 (Cynomolgus CXCR2 [15]): 3500 nM; FLIPR hGro-α IC50 (Human CXCR2 [16]): 59 nM |
| 0.8 | 53 | 64.1 | 93.9 | 17.2 | 85.9 | 100 | 640 | 100 | 39.9 | 100 | 50.3 | > 100 | 11.6 | 97A9 (VHH, Tested as periplasmic extract (pAX50) and as purified His6-tagged protein (pAX100); also called 097A09; not shown: C-terminal c-myc tag and His6 tag coded by the vector) VHH: EVQLVESGGGLVQPGGSLRLSCVASGSIVRINTMGWYRQTPGKQRELVADITSGGNINYIDAVKGRFTISRDNTKNTVYLQMNSLKPEDTAVYYCNAEIVVLVGVWTQRARTGNYWGQGTQVTVSS | FLIPR hGro-α IC50 (Cynomolgus CXCR2 [17]): 800 nM; FLIPR hGro-α IC50 (Human CXCR2 [18]): 94 nM; IC50 (Cynomolgus CXCR2 [19]): 63 nM; IC50 (Human CXCR2 [20]): 12 nM; Human Chemotaxis IC50 (GROα) (Human CXCR2 [12]): 48.5 nM |
| – | – | – | – | – | – | – | – | – | – | – | – | – | – | CXCR20061 (VHH, also called RD-HBC793; RDHBC 793) VHH: EVQLLESGGGLVQPGGSLRLSCAASGSIVRINTMGWYRQAPGKQRELVADITSGGNINYADSVKGRFTISRDNSKNTVYLQMNSLRPEDTAVYYCNAEIVVLVGVWTQRARTGNYWGQGTLVTVSS | Signal:Background (Human CXCR2 [13]): 6.9 ratio; FLIPR hGro-α IC50 (Cynomolgus CXCR2 [17]): 350 nM; FLIPR hGro-α IC50 (Human CXCR2 [18]): 66 nM; IC50 (Cynomolgus CXCR2 [19]): 62 nM; IC50 (Human CXCR2 [20]): 15 nM |
| 0.5 | 91 | 14.8 | 96.4 | 6.95 | 86.8 | 100 | 37.2 | 100 | 1.91 | 100 | 53.2 | > 100 | 6.6 | 163D2 (VHH, Tested as periplasmic extract (pAX50) and as purified His6-tagged protein (pAX100); also called 163D02; not shown: C-terminal c-myc tag and His6 tag coded by the vector) VHH: EVQLVESGGGLVQAGGSLRLSCAASGRTFSDYAMGWFRQAPGKEREFVAAITWNGGRVFYTASVKGRFTISRDNAKNTMYLQMNSLKPEDTAVYYCAADKDRRTDYLGHPVAYWGQGTQVTVSS | FLIPR hGro-α IC50 (Cynomolgus CXCR2 [21]): 92 nM; FLIPR hGro-α IC50 (Human CXCR2 [22]): 66 nM; IC50 (Cynomolgus CXCR2 [23]): 7.1 nM; IC50 (Human CXCR2 [24]): 2.8 nM |
| – | – | – | – | – | – | – | – | – | – | – | – | – | – | CXCR20086 (VHH) VHH: EVQLLESGGGLVQPGGSLRLSCAASGRTFSDYAMGWFRQAPGKEREFVAAITWNGGRVFYTASVKGRFTISRDNSKNTLYLQMNSLRPEDTAVYYCAADKDRRTDYLGHPVAYWGQGTLVTVSS | FLIPR hGro-α IC50 (Cynomolgus CXCR2 [21]): 85 nM; FLIPR hGro-α IC50 (Human CXCR2 [22]): 73 nM; IC50 (Cynomolgus CXCR2 [23]): 4.8 nM; IC50 (Human CXCR2 [24]): 2 nM |
